“Also recorded” adds a separate entry of the source.
Tests used:
M. incognita J2 = experiment: In planta bioassay, one soil application: nematode infection of tomato roots; format: in vivo, M. incognita on tomato plants; conditions: with or without Vydate 125 μl; for Mean number of nematodes in roots: soil 16% organic matter, 11 days; for Reduction of nematode infection of tomato plants: vs controls
Method: Oxamyl is supplied as 10% liquid Vydate. 125 μl of a solution 1000 fold dilution of 10% formulation (kindly supplied by DK from NIU) was applied to 5 g of the soil mixture with 16% organic matter, to give a partial nematicidal effect. Soil mixtures were wetted with PBS pH 7.2, 16 hrs prior nematode application of 1000 or 2000 M. incognita J2. Infected soil mixtures were treated with water (control) or 250 μM of active papain in 16 mM of L-cysteine or a combination of Vydate and 250 μM of active papain in 16 mM of L-cysteine. After 48 hs tomato seedlings one month old were added to the treated soils. After 11 days the roots were washed free of soil and chopped to approximately 2 mm pieces. The root pieces of each tomato plant was placed in muslin bags and stained with acid-fuchsin. The stained roots were examined under microscope and all the nematodes present in the roots were counted. In some experiments the soil mixture was wetted with PBS pH 7.2 or 250 μM of active papain for 16 hs to block the non-specific binding site present in the soil particles. After that approximately 1000 M. incognita J2 were applied to soil mixtures, followed by application of 250 μM of active papain in presence of 16 mM of L-cysteine, or water (control) or Vydate alone or a combination of 250 μM of active papain in presence of 16 mM of L-cysteine and Vydate. After 48 hours tomato seedlings one month old were added to the treated soils and after 11 days post infection nematode development inside root tissues was assessed as described above.
Approximately 2000 J2 of M. incognita were added to 5 g of 1:6 loam and sand which was previously wetted for 16 hs with PBS pH 7. Then a solution of 300 μM or 150 μM of active papain (in 16 mM of L-cysteine) with and without 125 μl Vydate was added to soil and left to react for 48 hs. After this period of time tomato seedlings one month old were added to the treated soil mixtures and placed in a glasshouse at 23° C. in a 16:8 h light-dark regime (Table 1). After 11 days nematode development in the root tissue was assessed.

Meloidogyne spp. eggs = experiment: Effect on eggs, hatching and development of Meloidogyne spp.; format: cell-based
Method: To determine if the enzymes affected the eggshell and/or the development and hatching of the juveniles which the eggs contain, approximately 300 Meloidogyne spp. eggs were incubated per well of a 48-well plate, in duplicate, in 50 μM (active enzyme) papain, prepared in 16 mM L-cysteine dissolved in distilled water, or distilled water with and without 16 mM L-cysteine. The number of eggs in each well was counted before the addition of papain and then the eggs were incubated in the dark at room temperature for 4 h. The number of eggs was counted before further incubation overnight. Finally, closer examination of the structure of the nematode eggs was performed using the light microscope at ×40 magnification.

G. rostochiensis J2s = experiment: In vitro mobility and cuticle damage of G. rostochiensis J2s; format: cell-based, Globodera rostochiensis
Method: Eggs of M. incognita race 1 from North Carolina State University, USA, and M. javanica from Portugal were collected from the roots of infected tomato plants grown in a glasshouse at 23° C. in a 16:8 h light-dark regime. Eggs were extracted using 1% hypochlorite (NaClO) solution (Hussey and Barker, 1973) or by picking egg masses from the infected roots. M. incognita and M. javanica were both used in the experiments and produced similar results. Juveniles (J2) were hatched from the eggs and egg masses in water. Globodera rostochiensis cysts were washed extensively in distilled water. Hatched J2s were obtained by incubating cysts in distilled water for 4 days followed by exposure to potato root diffusate (PRD).
Approximately 1000 J2s (second juvenile stage) of M. incognita or M. javanica were incubated per well of a 48-well plate with the following active enzyme concentrations (determined by E-64 titration) of papain dissolved in distilled water containing 16 mM L-cysteine (to activate the cysteine proteinase): 1.5 μM, 3 μM, 6.25 μM, 12.5 μM, 25 μM, 50 μM, 75 μM and 100 μM. […] The number of active J2s per well was counted prior to the addition of papain, and then the J2s were incubated in the dark at room temperature for 3 h. The number of mobile J2s per well was counted after 60, 120 and 180 mins. […]

B1: papain (protein, UniProt P00784 134-345, looked up)
Papain: IPEYVDWRQKGAVTPVKNQGSCGSCWAFSAVVTIEGIIKIRTGNLNEYSEQELLDCDRRSYGCNGGYPWSALQLVAQYGIHYRNTYPYEGVQRYCRSREKGPYAAKTDGVRQVQPYNEGALLYSIANQPVSVVLEAAGKDFQLYRGGIFVGPCGNKVDHAVAAVGYGPNYILIKNSWGTGWGENGYIRIKRGTGNSYGVCGLYTSSFYPVKN
notes: cysteine proteinase from Carica papaya, Merops C01.001, Sigma P3125
M. incognita J2; papain 150 μM
  Mean number of nematodes in roots: 272
  Reduction of nematode infection of tomato plants: 14%
M. incognita J2; papain 300 μM
  Mean number of nematodes in roots: 132
  Reduction of nematode infection of tomato plants: 60%
Meloidogyne spp. eggs; incubation of the eggs with enzyme
  hatching and development of the J2 stage: not affected
Meloidogyne spp. eggs; light microscopy, up to overnight incubation
  effect on eggs / structure of the eggs: remained unaffected
G. rostochiensis J2s; 25 μM active enzyme
  mobility (proportion of active worms) of G. rostochiensis J2s: reduction in mobility was significantly greater overall; also recorded: Reductions in the proportion of active worms were evident
G. rostochiensis J2s; data not shown
  incubation needed before damage to the cuticle, compared to Meloidogyne spp.: needed longer incubation periods

Reference: patent US20110239327A1, “Nematicidal Effects of Cysteine Proteinases and Methods of Use Thereof to Treat Nematode Infestation” (priority 2007, published 2011)
